Biological target: ribosomal protein uL29 (B. subtilis (endogenous in the B. …, UniProt P12873 1-66))
Test: cryo-EM structure; (Bs)SRP pre-incubated with pppGpp, tenfold molar excess over MifM-stalled RNCs, 10 min at room temperature
Settings: both partners purified

B1: recombinant (Bs)SRP (Ffh and 6S RNA) (natural protein)
chain: MAFEGLADRLQQTISKIRGKGKVSEQDVKEMMREVRLALLEADVNFKVVKDFVKKVSERAVGQDVMKSLTPGQQVIKVVQEELTELMGGEESKIAVAKRPPTVIMMVGLQGAGKTTTSGKLANLLRKKHNRKPMLVAADIYRPAAIKQLETLGKQLDMPVFSLGDQVSPVEIAKQAIEKAKEEHYDYVILDTAGRLHIDHELMDELTNVKEIANPEEIFLVVDSMTGQDAVNVAKSFNEQLGLTGVVLTKLDGDTRGGAALSIRAVTNTPIKFAGLGEKLDALEPFHPERMASRILGMGDVLTLIEKAQASVDEDKAKELEQKMRTMSFTLDDFLEQLGQVRNMGPLDELLQMMPGAGKMKGLKNIQVDEKQLNHVEAIIKSMTVLEKEQPDIINASRRKRIAKGSGTSVQEVNRLLKQFDEMKKMMKQMTNMSKGKKKGFKLPFM
notes: Ffh, B. subtilis, full length; Ribonucleoprotein: the protein stood with the 6S SRP RNA and with pppGpp or GMPPNP; also called full-length (Bs)Ffh; not shown: 6xHis, N-terminal, cleaved
Question: Does B1 bind?
Answer: binds

Reference: publication PMC8881573, “Inhibition of SRP-dependent protein secretion by the bacterial alarmone (p)ppGpp” (Nature Communications, 2022)
